Laboratory results reported in patent US20190218553, “VON WILLEBRAND FACTOR (VWF)-TARGETING AGENTS AND METHODS OF USING THE SAME” (DUKE UNIVERSITY, published 2019).
Where a chain is given by its changes, count along the chain named.

What was measured:
[1] = molecular target: T1, von Willebrand factor (VWF) (Homo sapiens, UniProt P04275 P04275:764-2813); assay: filter; Bmax 87%; 2 mM CaCl2, 37 C; conditions: Haematologic Technologies Inc, label: 5'-32P
Procedure: (§1) Affinity constants (Kd values) were determined using double-filter nitrocellulose filter binding assays (Rusconi et al, Thromb. Haemost. $4:841-848 (2000)). All binding studies were performed in binding buffer F (20 mM HEPES, pH 7.4, 150 mM NaCl, 2 mM CaCl₂, and 0.01% BSA) at 37° C. Human purified VWF (factor VIII free) was purchased from Haematologic Technologies Inc. (Essex Junction, Vt.) and used in the double-filter nitrocellulose filter binding assay to determine the Kd of the aptamers. Briefly, RNA were end-labeled at the 5′ end with T4 polynucleotide kinase (New England Biolabs, Beverly, Mass.) and [γ³²P] ATP (Amersham Pharmacia Biotech, Piscataway, N.J.) (Fitzwater and Polisky, Methods Enzymol. 267:275-301 (1996)). End-labeled RNA was diluted in binding buffer F, heat denatured at 65° C. for 5 minutes, and subsequently equilibrated at 37° C. Direct binding was performed by incubating trace ³²P-RNA with varying concentrations of VWF protein in binding buffer F at 37° C. for 5 min. The fraction of the nucleic acid-protein complex which bound to the nitrocellulose membrane was quantified with a phosphorimager (Molecular Dynamics, Sunnyvale, Calif.). Non-specific binding of the radiolabeled nucleic acid was subtracted out of the binding such that only specific binding remained (Wong and Lohman, Proc. Natl. Acad. Sci. USA 90:5428-5432 (1993)).

[2] = molecular target: T1, von Willebrand factor (VWF); assay: filter; Bmax 67%; 2 mM CaCl2, 37 C; conditions: tags: factor VIII free human purified VWF, Haematologic Technologies Inc; label: 5'-32P
Procedure: as §1

[3] = molecular target: T1, von Willebrand factor (VWF); assay: filter; Bmax 78%; 2 mM CaCl2, 37 C; conditions: Haematologic Technologies Inc, label: 5'-32P
Procedure: as §1

[4] = molecular target: T1, von Willebrand factor (VWF); assay: filter; Bmax 81%; 2 mM CaCl2, 37 C; conditions: tags: factor VIII free, Haematologic Technologies Inc; label: 5'-32P
Procedure: as §1

[5] = molecular target: T1, von Willebrand factor (VWF); assay: filter; Bmax 86%; 2 mM CaCl2, 37 C; conditions: Haematologic Technologies Inc, label: 5'-32P
Procedure: as §1

[6] = molecular target: T1, von Willebrand factor (VWF); assay: filter; Bmax 80%; 2 mM CaCl2, 37 C; conditions: tags: factor VIII free human purified VWF, Haematologic Technologies Inc; label: 5'-32P
Procedure: as §1

[7] = molecular target: T1, von Willebrand factor (VWF); assay: filter; Bmax 73%; 2 mM CaCl2, 37 C; conditions: Haematologic Technologies Inc, label: 5'-32P
Procedure: as §1

[8] = molecular target: T1, von Willebrand factor (VWF); assay: filter; Bmax 88%; 2 mM CaCl2, 37 C; conditions: Haematologic Technologies Inc, label: 5'-32P
Procedure: as §1

[9] = molecular target: T1, von Willebrand factor (VWF); assay: filter; Bmax 58%; 2 mM CaCl2, 37 C; conditions: tags: factor VIII free, Haematologic Technologies Inc; label: 5'-32P
Procedure: as §1

[10] = molecular target: T1, von Willebrand factor (VWF); assay: filter; Bmax 54%; 2 mM CaCl2, 37 C; conditions: tags: factor VIII free, Haematologic Technologies Inc; label: 5'-32P
Procedure: as §1

[11] = tags: factor VIII free human purified VWF

B1: T82 vrt4 (ssRNA)
RNA: ACGAACUGCCCUCGAUCGACGCACAGACGUACCCG
modifications: 2'-F C9,C10,C11,C20,C22; ribo G21; rest 2'-OMe; 3' idT
[1]; [11]
  Kd: 38.5 nM

B2: T82 vrt6 (ssRNA)
RNA: B1 RNA
modifications: 2'-F C9,C10,C11,C20,G21,C22,U30; rest 2'-OMe; 3' idT
[2]
  Kd: 223 nM

B3: T83 vrt6 (ssRNA)
RNA: B1 RNA with C32A, C33A, C34A, G35A
modifications: 2'-F C9,C10,C11,C20,G21,C22,U30; rest 2'-OMe; 3' idT
[2]
  Kd: 209 nM

B4: T82 vrt7 (ssRNA)
RNA: B1 RNA
modifications: 2'-F C9,C10,C11,C20,G21,C22; rest 2'-OMe; 3' idT
[3]; [11]
  Kd: 268 nM

B5: T70 (ssRNA)
RNA: ACGAACUGCCCUCAUUAUUGACGCACAGACGU
modifications: 2'-F C and U; 2'-OH A and G; 3' idT
[4]
  Kd: 13 nM

B6: T94 (ssRNA)
RNA: B5 RNA with A14U, A17U
modifications: 2'-F C and U; 2'-OH A and G; 3' idT
[1]; tags: factor VIII free
  Kd: 5 nM

B7: T87 (ssRNA)
RNA: B5 RNA with A14U, A17C, U18A
modifications: 2'-F C and U; 2'-OH A and G; 3' idT
[5]; tags: factor VIII free
  Kd: 11 nM

B8: T94 vrt6 (ssRNA)
RNA: B5 RNA with A14U, A17U
modifications: 2'-F C9,C10,C11,C22,G23,C24,U32; rest 2'-OMe; 3' idT
[3]; [11]
  Kd: 42 nM

B9: T59 vrt8 (ssRNA)
RNA: ACGAACUGCCCUCGAUCGACGCACAGACGU
modifications: mAfCrGmAmAmCfUrGfCfCfCfUmCmGmAmUmCmGrAfCrGfCrAmCmAmGmAfCrGfU-idT
[5]; tags: factor VIII free
  Kd: 1.8 nM

B10: T89 vrt2 (ssRNA)
RNA: ACGAACUGCCCUCGUAUUAUUUCGACGCACAGACGU
modifications: 2'-F C9,C10,C11,C26,C28,U36; ribo G27; rest 2'-OMe; 3' idT
[6]
  Kd: 12 nM

B11: T89 vrt10 (ssRNA)
RNA: B10 RNA
modifications: 2'-F G8,C9,C10,C11,A25,C26,G27,C28,A29; rest 2'-OMe; 3' idT
[5]; [11]
  Kd: 548 nM

B12: T89 vrt6 (ssRNA)
RNA: B10 RNA
modifications: 2'-F C9,C10,C11,C26,G27,C28,U36; rest 2'-OMe; 3' idT
[7]; [11]
  Kd: 34.5 nM

B13: T86 (ssRNA)
RNA: ACGAACUGCCCUCGUUUCAUCGACGCACAGACGU
modifications: 2'-F C and U; 2'-OH A and G; 3' idT
[8]; tags: factor VIII free
  Kd: 16 nM

B14: T86 vrt7 (ssRNA)
RNA: B13 RNA
modifications: 2'-F C9,C10,C11,C24,G25,C26; rest 2'-OMe; 3' idT
[8]; [11]
  Kd: 50 nM

B15: T95 (ssRNA)
RNA: B13 RNA with G14U, C18U, A19U, C21U
modifications: 2'-F C and U; 2'-OH A and G; 3' idT
[4]
  Kd: 12 nM

B16: T86 vrt4 (ssRNA)
RNA: B13 RNA
modifications: 2'-F C9,C10,C11,C24,C26; ribo G25; rest 2'-OMe; 3' idT
[8]; [11]
  Kd: 12 nM

B17: T86 vrt1 (ssRNA)
RNA: B13 RNA
modifications: 2'-F C2,U7,C9,C10,C11,U12,C24,C26,C32,U34; ribo A1,G3,G8,A23,G25,A27,G33; rest 2'-OMe; 3' idT
[6]
  Kd: 0.9 nM

B18: T52 (ssRNA)
RNA: ACGAACUGCCCUCAGCAUUAUUGCUGACGCACAGACGU
modifications: 2'-F C and U; 2'-OH A and G; 3' idT
[9]
  Kd: 16 nM

B19: T59 vrt25 (ssRNA)
RNA: B9 RNA
modifications: 2'-F U7,C9,C10,C11,U12,C20,C22,U30; ribo G8,A19; rest 2'-OMe; 3' idT
[5]; [11]
  Kd: 76 nM

B20: T59 vrt11 (ssRNA)
RNA: B9 RNA
modifications: rAfCrGmAmAmCfUmGfCfCfCfUmCmGmAmUmCmGrAfCrGfCrAmCmAmGmAfCrGfU-idT
[8]; tags: factor VIII free
  Kd: 1.3 nM

B21: T79 vrt1 (ssRNA)
RNA: ACGAACUGCCCUCGAUCGACGCACAGACGUUUUUU
modifications: rAfCrGmAmAmCfUrGfCfCfCfUmCmGmAmUmCmGrAfCrGfCrAmCmAmGmAfCrGfUmUmUmUmUmU-idT
[3]; tags: factor VIII free
  Kd: 1.9 nM

B22: DTRI-012 (ssRNA)
RNA: B21 RNA with A15U, U16A, C17A
modifications: mAmCmGmAmAmCmUmGfCfCfCmUmCmGmUmAmAmGmAfCrGfCmAmCmAmGmAmCmGfUmUmUmUmUmUidT
[7]; tags: factor VIII free
  Kd: 5.5 nM

B23: T79 vrt2 (ssRNA)
RNA: B21 RNA
modifications: mAmCmGmAmAmCmUmGfCfCfCmUmCmGmAmUmCmGmAfCrGfCmAmCmAmGmAmCmGfUmUmUmUmUmU-idT
[4]
  Kd: 24 nM

B24: T11 (ssRNA)
RNA: GGGAGGACGAACUGCCCUCAGCUACUUUCAUGUUGCUGACGCACAGACGACUCGCUG
modifications: 2'-F C and U; 2'-OH A and G
[10]
  Kd: 16.5 nM
